The target of experiment [1] is T1, first-generation H3 LAH construct H3frThrST (Influenza A virus (H3)). As to the kind of experiment: ELISA, supernate.
The target in experiment [2] is T2, first-generation H1 LAH construct H1frThrST (Influenza A virus (H1)). As to the kind of experiment: ELISA, supernate. A general note: In an ELISA, binding on a coated surface is turned into a signal by an enzyme label.
Experiment [3] deals with T1, first-generation H3 LAH construct …. As to the kind of experiment: ELISA, supernate. This is another data set of the same source.
Experiment [4] addresses T2, first-generation H1 LAH construct …. The experiment in a line: ELISA, supernate. This is another data set of the same source.
Experiment [5] deals with T1, first-generation H3 LAH construct …. As to the kind of experiment: ELISA, supernate. The source holds these as a separate data set.
Experiment [6] addresses T2, first-generation H1 LAH construct …. The experiment in a line: ELISA, supernate. The source holds these as a separate data set.
For experiment [7] the target is unchanged. As to the kind of experiment: ELISA, supernate. The source holds these as a separate data set.
Experiment [8] has as its target T1, first-generation H3 LAH construct …. As to the kind of experiment: ELISA, supernate. The source holds these as a separate data set.
For experiment [9], the target named is T2, first-generation H1 LAH construct …. The experiment in a line: ELISA, supernate. The source holds these as a separate data set.
Experiment [10] concerns the target T1, first-generation H3 LAH construct …. As to the kind of experiment: ELISA, recombinant mAb.
The target in experiment [11] is T2, first-generation H1 LAH construct …. The experiment in a line: ELISA, recombinant mAb.
Experiment [12] addresses T1, first-generation H3 LAH construct …. As to the kind of experiment: ELISA, supernate. The source holds these as a separate data set.
Experiment [13] addresses T2, first-generation H1 LAH construct …. As to the kind of experiment: ELISA, supernate. The source holds these as a separate data set.
The target in experiment [14] is T1, first-generation H3 LAH construct …. The experiment in a line: ELISA, supernate. The source holds these as a separate data set.

B1: mAb 7A13 (antibody, V domains shown)
VH: QVQLQESAPGLVKPSGTLSLTCAVSGASLSSSDWWTWVRQPPGKGLEWIGEIHHGGSTNSNPSLQSRVTISIDKSKKQFSLKLTSVTVADTAVYYCARAPGADAGPYSENIHHWGQGTLVTVS
VL: QLVLTQSPSASASLGASVKLTCTLSSRHSDYAIGWHQQQPGKGPRYLMKLNPDGSHTKGDGIPDRFSGSSSGAERYLTISNLLSEDEADYYCQTWGTGIQVFGGGTRLTVIS
In the case of B1, the OD in experiment [1] and in experiment [2] was 0.068 OD each time.

B2: mAb 6J24 (antibody, V domains shown)
VH: EVQLVESGGGLVQPGRSLRLSCVGSGFNFDGYAMQWVRQVPGKGLEWVSGISWHSDSTGYADSVRGRFTISRDNAKNSLYLQMDSLRPEDTAFYYCGKSIGHVGGSYRHPIDYWGQGTLVTVS
VL: DIQLTQSPSSLSASVGDRVTITCRASQGITDYLAWYQQKPGTIPKLLIYAASTLQSGVPSRFSGGGYGTDFTLTISSLQPEDVATYYCQKYNSAPLTFGGGTKVEIKR
As for B2, the OD came to 0.94 OD in experiment [3] and 0.418 OD in experiment [4].

B3: mAb 25J3 (antibody, V domains shown)
VH: QVQLQESGPGLVRPSETLSLTCNVSGDSINDYYWSWIRQPPGKGLEWIGYIYYSGSTNYNPSLNSRVTISVEMSKNQFSLILNSVTAADTAVYYCARVDYDSGGSFDPWGQGTLVTVS
VL: QSVLTQPPSVSGAPGQRVTISCTGSSSNIGAGYDVHWYQQLPGTAPKLLIYGNSNRPSGVPDRFSGSKSGTSASLAITGLQAEDEADFYCQSYDSRLSGYVFGTGTKVTVLG
As to B3, the OD in [1] was 0.067 OD; in experiment [2], 0.068 OD.

B4: mAb 18G6 (antibody, V domains shown)
VH: QVQLKESGPGLVKPSETLSLTCTVSGGSISSSNYNWGWIRQPPGKGLEWIGSVYYSGSTYFNPSLKSRVTISVDTSKNQFSLKLTSVTAADTAVYYCARLIAFYYDTNGYTWGQGTLVTVS
VL: NSIMTQSPFTLSASVGDKVTITCRASQSISPWLAWYQQKPGKAPKLLIYKASSLETGVPSRFSGSESGTEFTLTISGLQPDDFATYYCQQYSSFARTFGQGTKVEIKR
Turning to B4, the OD in experiment [1] and in [2] was 0.071 OD each time.

B5: mAb 5J8 (antibody, V domains shown)
VH: EVQLVESGPGLVKPSDILSLTCAVSGYSISSNYYWGWIRQPPGKGLEWIGSIYHSGSTYYKPSLESRLGISVDTSKNQFSLKLSFVSAADTAVYYCARHVRSGYPDTAYYFDKWGQGTLVTVS
VL: SYVLTQPPSVSVAPGETARISCGGNNIGTKVLHWYQQTPGQAPVLVVYDDSDRPSGIPERFSGSNSGNTATLTISRVEVGDEADYYCQVWDISTDQAVFGGGTKLTVLG
For the molecule B5, the OD in experiment [5] came to 0.083 OD; in experiment [6] it was 0.076 OD.

B6: mAb 4A10 (antibody, V domains shown)
VH: EVQLVESGGGLVQPGGSLRLSCAASGFSFSSYWMTWVRQAPGKGLEWVANIKQYGSEKYYVDSVKGRFTISRDNAKNSLYLQMNSLRDDDTAVYYCARMGSYLDTYYYHYGMDVWGQGTTVTVS
VL: QSVLTQPPSLSGAPGQRVTISCTGSSSNIGADYDVYWYQHLPGTAPKLLMYGDGYRPSGVPDRFSGSKSGTSASLAITGLQAEDEADYYCQSYDSSLSRRVVFGGGTKLTVLG
Take B6: the OD came to 0.073 OD in experiment [5] and 0.069 OD in [6].

B7: mAb 10E15 (antibody, V domains shown)
VH: EVQLLESGGGVVQPGRSLRLSCAASGFTFRTYGMHWVRQAPGKGLEWVAVISHDGNLKYYGGSVKGRFTISRDNSKNALYLQMNSLRVDDTALYYCARGIGITDAFDIRGQGTMVVVS
VL: QSVLTQPPSVSAAPGQKVTISCSGSSSNIGKNYVSWYQQLPGTAPKLLIYDNDKRPSGIPDRFSGSKSGTSATLGITGLQTGDEADYHCGAWDSSLNGGVFGGGTKVTVLG
Regarding B7, the binding result in experiment [7] is reported as “no binding”. The OD is 0.07 OD in [8] and 0.068 OD in experiment [9].

B8: mAb 11J19 (antibody, V domains shown)
VH: EVQLQESGPGLVKPSETLSLSCTVSGGSITRSSYYWGWIRQPPGKGLEWIGNIYYSGTTYYNPSLKSRVTISVDTSKNQFSLKLSSVTAADTAVYYCARLYGSGLDYWGQGTLVTVS
VL: DIQLTQSPSFLSASVGDRVTITCRASQGSSRYVAWYQQKPGKAPKLLILAASTLHTGVPSRFSGSGSGTEFTLTISSLQPEDFATYSCQQLNGFLLTFGGGTKVEIKR
B8: the OD in experiment [1] came to 0.075 OD; in experiment [2], 0.085 OD.

B9: mAb 2K11 (antibody, V domains shown)
VH: EVQLVESGGGLVQPGGSLRLSCVASTFSLINYWMTWVRQAPGKGLEWVANIKQDGFEKYYVDSVKGRFTISRDNAKNSLYLQMNSLRVEDTAVYYCARQGSYADTYFYHYGMDVWGQGTTVTVS
VL: QSALTQPPSVSGAPGQRVTISCTGSSSNIGAGYDAYWYQQLPGTAPKLLIYGNSNRLSGVPDRFSASKSGTSASLAITGLQAEDEADYYCQSYDSSLSIFGGGTKLTVLR
B9: the OD in experiment [5] is 0.072 OD; in experiment [6], 0.079 OD.

B10: mAb 3N6 (recombinant) (antibody, V domains shown)
VH: QVQLQESGPGLVKPSETLSLTCSVSGGSINYYYWSWIRQPPGKGLECIGYISDTGRTYYNPSLRSRVTISVDTSKNQFSLNLTSMTAADTAVYYCARDPTGSRQKNAFDMWGQGTMVTVS
VL: AIQMTQSPSSLSASVGDRVTITCRASQNIRSYLNWYQQKPGKAPNLLIYGTTSLESGVPSRFSGSGSGTDFTLTISSLQPEDFATYYCQQSYHTPQTFGQGTKVEIKR
With B10, the OD stood at 0.072 OD in experiment [10] and 0.91 OD in experiment [11].

B11: mAb 2O10 (antibody, V domains shown)
VH: EVQLVESGGGLVQPGGSLRLSCAASGFTFNSYWMTWVRQAPGKGLEWVANINQDGSEKFFVDSVKGRFTISRDNAKTSLYLQMNSLRVEDTAVYYCAREGAPYDTYYYYYAMDVWGQGTTVTVS
VL: QSVLTQPPSVSGAPGQRVTISCTGTSSNIGAGYGVHWYQQLPGAAPKLLVYGNSNRPSGVPDRFSGSKSGTSASLAITGLQAEDEADYYCQSYDISLSGSNVFGTGTKVTVLG
On to B11, for which the OD is 0.074 OD in [5] and 0.072 OD in experiment [6].

B12: mAb 3E22 (antibody, V domains shown)
VH: EVQLVESGAEVKKPGASVKVSCKASGYTFSRYYIHWVRQAPGQELEWMGWINPDSGDTNYAQKFRGRVTMARDTSISTVYMELNSLRYDDTAVYFCARIIWSSSGMDVWGQGTTVTVS
VL: QSALTQPASVSGSPGQSITISCTGTSSDVGSYNLVSWYQQHPGKAPKLMIYEVSKRPSGVSNRFSGSKSGNTASLTISGLQAEDEADYYCHLYVGSSNWVFGGGTKLAVLG
In the case of B12, the OD came out at 0.086 OD in experiment [12] and 0.087 OD in experiment [13]. Also, the binding result in [14] and in experiment [7] was “no binding” each time.

B13: mAb 8F8 (antibody, V domains shown)
VH: EVQLLESGGGVVQPGRSLRLSCAASGFMFSSYVMHWVRQPPGKGLEWVAVIWYDGSKTYFADSMRGRLTVSRDNSKNALYLQMNRLRAEDTAVYYCARQQDSGYSGPEVSYYSHYGMDVWGQGTTVIVS
VL: QSVLTQSPSASGTPGRAITISCSGSSSNIGSNPVNWYQQLPGAAPKLLIYADEHRPSGVPDRFSGPKSGTSASLAISGLQSEDEADYYCAAWDDSLSGPAVVFGGGTKLTVLG
On to B13, for which the OD in [1] and in [2] was 0.071 OD throughout.
